Test results as given in patent publication US20230357348A1 (AstraZeneca / MedImmune, published 2023).
Starred links: 1 amine or outer side, 2 acyl side, 3 side chain; linkers in the order of their positions; H or OH if unused. Non-standard residues stand in square brackets, D forms with d. Groups on a side chain read outwards from the residue. No end group written: not given here. *: point of attachment. C20 diacid = O=C(O)CCCCCCCCCCCCCCCCCCC(=O)*; C18 diacid = O=C(O)CCCCCCCCCCCCCCCCC(=O)*; γGlu = O=C(O)[C@H](CCC(=O)[*:2])N[*:1]; αMeF = C[C@](N)(Cc1ccccc1)C(=O)O; AEEA = NCCOCCOCC(=O)O; Aib = CC(C)(N)C(=O)O

B1: Peptide 357 (peptide)
peptide: HXHGSXTSDVSKXLDSQAAQDFVXWIANT
modifications: Aib at 2; αMePhe at 6 and 13; K(γE-γE-(PEG)2-γE-γE-C20diacid)24; C-terminal amide
B2: Peptide 526 (peptide)
peptide: H[Aib]QGTFTSDVSK[αMeF]LDSERAK([AEEA-AEEA-γGlu-C18 diacid])DFVAWLEA[Aib]G-OH
modifications: N-terminus assumed
SMILES: CC(C)C[C@H](NC(=O)[C@H](Cc1c[nH]c2ccccc12)NC(=O)[C@H](C)NC(=O)[C@@H](NC(=O)[C@H](Cc1ccccc1)NC(=O)[C@H](CC(=O)O)NC(=O)[C@H](CCCCNC(=O)COCCOCCNC(=O)COCCOCCNC(=O)CC[C@H](NC(=O)CCCCCCCCCCCCCCCCC(=O)O)C(=O)O)NC(=O)[C@H](C)NC(=O)[C@H](CCCNC(=N)N)NC(=O)[C@H](CCC(=O)O)NC(=O)[C@H](CO)NC(=O)[C@H](CC(=O)O)NC(=O)[C@H](CC(C)C)NC(=O)[C@](C)(Cc1ccccc1)NC(=O)[C@H](CCCCN)NC(=O)[C@H](CO)NC(=O)[C@@H](NC(=O)[C@H](CC(=O)O)NC(=O)[C@H](CO)NC(=O)[C@@H](NC(=O)[C@H](Cc1ccccc1)NC(=O)[C@@H](NC(=O)CNC(=O)[C@H](CCC(N)=O)NC(=O)C(C)(C)NC(=O)[C@@H](N)Cc1c[nH]cn1)[C@@H](C)O)[C@@H](C)O)C(C)C)C(C)C)C(=O)N[C@@H](CCC(=O)O)C(=O)N[C@@H](C)C(=O)NC(C)(C)C(=O)NCC(=O)O
B3: Peptide 525 (peptide)
peptide: H[Aib]QGTFTSDVSK[αMeF]LDSERAK([AEEA-AEEA-γGlu-C18 diacid])DFVQWLEA[Aib]G-OH
modifications: N-terminus assumed
SMILES: CC(C)C[C@H](NC(=O)[C@H](Cc1c[nH]c2ccccc12)NC(=O)[C@H](CCC(N)=O)NC(=O)[C@@H](NC(=O)[C@H](Cc1ccccc1)NC(=O)[C@H](CC(=O)O)NC(=O)[C@H](CCCCNC(=O)COCCOCCNC(=O)COCCOCCNC(=O)CC[C@H](NC(=O)CCCCCCCCCCCCCCCCC(=O)O)C(=O)O)NC(=O)[C@H](C)NC(=O)[C@H](CCCNC(=N)N)NC(=O)[C@H](CCC(=O)O)NC(=O)[C@H](CO)NC(=O)[C@H](CC(=O)O)NC(=O)[C@H](CC(C)C)NC(=O)[C@](C)(Cc1ccccc1)NC(=O)[C@H](CCCCN)NC(=O)[C@H](CO)NC(=O)[C@@H](NC(=O)[C@H](CC(=O)O)NC(=O)[C@H](CO)NC(=O)[C@@H](NC(=O)[C@H](Cc1ccccc1)NC(=O)[C@@H](NC(=O)CNC(=O)[C@H](CCC(N)=O)NC(=O)C(C)(C)NC(=O)[C@@H](N)Cc1c[nH]cn1)[C@@H](C)O)[C@@H](C)O)C(C)C)C(C)C)C(=O)N[C@@H](CCC(=O)O)C(=O)N[C@@H](C)C(=O)NC(C)(C)C(=O)NCC(=O)O
B4: Peptide 362 (peptide)
peptide: H[Aib]HGS[αMeF]TSDVSK[αMeF]LDSRAAQDFVK([AEEA-AEEA-γGlu-γGlu-C18 diacid])WIANT-NH2
modifications: N-terminus assumed
SMILES: CC[C@H](C)[C@H](NC(=O)[C@H](Cc1c[nH]c2ccccc12)NC(=O)[C@H](CCCCNC(=O)COCCOCCNC(=O)COCCOCCNC(=O)CC[C@H](NC(=O)CC[C@H](NC(=O)CCCCCCCCCCCCCCCCC(=O)O)C(=O)O)C(=O)O)NC(=O)[C@@H](NC(=O)[C@H](Cc1ccccc1)NC(=O)[C@H](CC(=O)O)NC(=O)[C@H](CCC(N)=O)NC(=O)[C@H](C)NC(=O)[C@H](C)NC(=O)[C@H](CCCNC(=N)N)NC(=O)[C@H](CO)NC(=O)[C@H](CC(=O)O)NC(=O)[C@H](CC(C)C)NC(=O)[C@](C)(Cc1ccccc1)NC(=O)[C@H](CCCCN)NC(=O)[C@H](CO)NC(=O)[C@@H](NC(=O)[C@H](CC(=O)O)NC(=O)[C@H](CO)NC(=O)[C@@H](NC(=O)[C@](C)(Cc1ccccc1)NC(=O)[C@H](CO)NC(=O)CNC(=O)[C@H](Cc1c[nH]cn1)NC(=O)C(C)(C)NC(=O)[C@@H](N)Cc1c[nH]cn1)[C@@H](C)O)C(C)C)C(C)C)C(=O)N[C@@H](C)C(=O)N[C@@H](CC(N)=O)C(=O)N[C@H](C(N)=O)[C@@H](C)O
B5: Peptide 353 (peptide)
peptide: HXHGSXTSDVSKXLDSQAAQDFVXWIANT
modifications: Aib at 2; αMePhe at 6 and 13; K(γE-γE-(PEG)2-γE-γE-C18diacid)24 (printed YE-YE-(PEG)2-γE-γE-); C-terminal amide
B6: Peptide 382 (peptide)
peptide: H[Aib]HGS[αMeF]TSDVSK[αMeF]LDSR[Aib]AQDFVK([AEEA-AEEA-γGlu-γGlu-C18 diacid])SIANTGG-NH2
modifications: N-terminus assumed
SMILES: CC[C@H](C)[C@H](NC(=O)[C@H](CO)NC(=O)[C@H](CCCCNC(=O)COCCOCCNC(=O)COCCOCCNC(=O)CC[C@H](NC(=O)CC[C@H](NC(=O)CCCCCCCCCCCCCCCCC(=O)O)C(=O)O)C(=O)O)NC(=O)[C@@H](NC(=O)[C@H](Cc1ccccc1)NC(=O)[C@H](CC(=O)O)NC(=O)[C@H](CCC(N)=O)NC(=O)[C@H](C)NC(=O)C(C)(C)NC(=O)[C@H](CCCNC(=N)N)NC(=O)[C@H](CO)NC(=O)[C@H](CC(=O)O)NC(=O)[C@H](CC(C)C)NC(=O)[C@](C)(Cc1ccccc1)NC(=O)[C@H](CCCCN)NC(=O)[C@H](CO)NC(=O)[C@@H](NC(=O)[C@H](CC(=O)O)NC(=O)[C@H](CO)NC(=O)[C@@H](NC(=O)[C@](C)(Cc1ccccc1)NC(=O)[C@H](CO)NC(=O)CNC(=O)[C@H](Cc1c[nH]cn1)NC(=O)C(C)(C)NC(=O)[C@@H](N)Cc1c[nH]cn1)[C@@H](C)O)C(C)C)C(C)C)C(=O)N[C@@H](C)C(=O)N[C@@H](CC(N)=O)C(=O)N[C@H](C(=O)NCC(=O)NCC(N)=O)[C@@H](C)O
B7: Peptide 360 (peptide)
peptide: H[Aib]IGS[αMeF]TSDVSK[αMeF]LDSRAAQDFVK([AEEA-AEEA-γGlu-C20 diacid])WIANT-NH2
modifications: N-terminus assumed
SMILES: CC[C@H](C)[C@H](NC(=O)[C@H](Cc1c[nH]c2ccccc12)NC(=O)[C@H](CCCCNC(=O)COCCOCCNC(=O)COCCOCCNC(=O)CC[C@H](NC(=O)CCCCCCCCCCCCCCCCCCC(=O)O)C(=O)O)NC(=O)[C@@H](NC(=O)[C@H](Cc1ccccc1)NC(=O)[C@H](CC(=O)O)NC(=O)[C@H](CCC(N)=O)NC(=O)[C@H](C)NC(=O)[C@H](C)NC(=O)[C@H](CCCNC(=N)N)NC(=O)[C@H](CO)NC(=O)[C@H](CC(=O)O)NC(=O)[C@H](CC(C)C)NC(=O)[C@](C)(Cc1ccccc1)NC(=O)[C@H](CCCCN)NC(=O)[C@H](CO)NC(=O)[C@@H](NC(=O)[C@H](CC(=O)O)NC(=O)[C@H](CO)NC(=O)[C@@H](NC(=O)[C@](C)(Cc1ccccc1)NC(=O)[C@H](CO)NC(=O)CNC(=O)[C@@H](NC(=O)C(C)(C)NC(=O)[C@@H](N)Cc1c[nH]cn1)[C@@H](C)CC)[C@@H](C)O)C(C)C)C(C)C)C(=O)N[C@@H](C)C(=O)N[C@@H](CC(N)=O)C(=O)N[C@H](C(N)=O)[C@@H](C)O
B8: Peptide 355 (peptide)
peptide: HXHGSXTSDVSKXLDSQAAQDFVXWIANT
modifications: Aib at 2; αMePhe at 6 and 13; K((PEG)2-(PEG)2-γE-γE-C20diacid)24; C-terminal amide

Legend:
Assay in all cases: cell-based or functional assay
[1] = biological target: human GLP-1 receptor (hGLP-1R) (human, UniProt P43220 24-463)
[2] = biological target: human glucagon receptor (hGCGR) (human, UniProt P47871 26-477)
human GLP-1 receptor = human GLP-1 receptor (human, UniProt P43220 24-463)
human glucagon receptor = human glucagon receptor (human, UniProt P47871 26-477)
human glucagon receptor, sequence (P47871 26-477): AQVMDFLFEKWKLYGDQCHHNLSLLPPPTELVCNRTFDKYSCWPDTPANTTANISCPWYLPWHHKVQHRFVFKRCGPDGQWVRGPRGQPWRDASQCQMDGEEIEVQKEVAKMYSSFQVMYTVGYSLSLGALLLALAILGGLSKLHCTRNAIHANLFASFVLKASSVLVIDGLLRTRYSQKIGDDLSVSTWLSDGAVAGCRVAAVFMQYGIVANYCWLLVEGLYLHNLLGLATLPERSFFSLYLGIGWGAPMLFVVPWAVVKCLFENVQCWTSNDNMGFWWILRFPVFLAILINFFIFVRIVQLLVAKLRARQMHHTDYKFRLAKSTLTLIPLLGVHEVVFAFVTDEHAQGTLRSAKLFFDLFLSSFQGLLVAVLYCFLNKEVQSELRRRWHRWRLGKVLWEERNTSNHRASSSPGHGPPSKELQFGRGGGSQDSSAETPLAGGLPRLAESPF

human glucagon receptor (hGCGR), sequence (P47871 26-477): as above

Binder | hGLP-1R EC50 (pM); cAMP production [1] [pM] | hGluc-R EC50 (pM); cAMP production [2] [pM] | hGLP-1R EC50 (pM), cAMP (human GLP-1 receptor) [pM] | hGluc-R EC50 (pM), cAMP (human glucagon receptor) [pM]
H[Aib]HGS[αMeF]TSDVSK[αMeF]LDSQAAQD[αMeF]VK([AEEA-AEEA-γGlu-γGlu-C20 diacid])[Aib]IANT-NH2 [Peptide 384] | 797 | 1240 | – | –
B1 | 917 | 550 | – | –
HXHGTFTSDVSKXLDSQAAQDFVXWIANT (Aib at 2; αMePhe at 13; K(γE-C18diacid)24; C-terminal amide) [Peptide 346] | 7320 | – | – | –
H[Aib]HGS[αMeF]TSDVSK[αMeF]LDSRAAQD[αMeF]VK([AEEA-AEEA-γGlu-C18 diacid])SIANT-NH2 (not fully specified) [Peptide 379] | 71.8 | 85.7 | – | –
HXHGSXTSDVSKXLDSQAAQDFVXWIANT (Aib at 2; αMePhe at 6 and 13; K(O2Oc-O2Oc-γE-C18diacid)24; C-terminal amide) [Peptide 358] | 74.9 | – | – | –
B2 | – | – | 194 | 690
H[Aib]QGTFTSDVSE[αMeF]LDSERAK([AEEA-AEEA-γGlu-C18 diacid])DFVRWLEAGG-OH (not fully specified) [Peptide 524] | – | – | 366 | > 24400
HXHGTFTSDVSKXLDSQAAQDFVXWIANT (Aib at 2; αMePhe at 13; K(γE-C20diacid)24; C-terminal amide) [Peptide 347] | 4970 | 597 | – | –
B3 | – | – | 177 | 2450
HXHGTFTSDVSKXLDSQAAQDFVXWIANT (Aib at 2; αMePhe at 6 and 13; K(O2Oc-O2Oc-γE-C18diacid)24; C-terminal amide) [Peptide 348] | 70.1 | 4110 | – | –
B4 | – | 42.8 | – | –
B5 | 311 | 163 | – | –
B6 | 56 | 329 | – | –
B7 | 108 | 5640 | – | –
HXIGSXTSDVSKXLDSQAAQDFVXWIANT (Aib at 2; αMePhe at 6 and 13; K(O2Oc-O2Oc-γE-C18diacid)24; C-terminal amide) [Peptide 359] | 46.1 | 5050 | – | –
B8 | 424 | 478 | – | –
HXHGSXTSDVSKXLDSQAAQDFVXWIANT (Aib at 2; αMePhe at 6 and 13; K(O2Oc-O2Oc-γE-C20diacid)24; C-terminal amide) [Peptide 356] | 304 | 316 | – | –
HXHGSXTSDVSKXLDSQAAQDFVXWIANT (Aib at 2; αMePhe at 6 and 13; K(γE-C20diacid)24; C-terminal amide) [Peptide 354] | 1110 | 902 | – | –
HXQGSXTSDVSKXLDSQAAQDFVXWIANT (Aib at 2; αMePhe at 6 and 13; K(O2Oc-O2Oc-γE-C18diacid)24; C-terminal amide) [Peptide 349] | 121 | 83.7 | – | –
